Literature values in paper PMC8671346.

Assays:
[1] = molecular target: GM-CSF receptor (GMRα/βc) (Homo sapiens) (UniProt P15509)
[2] = molecular target: GM-CSF receptor alpha chain (GMRα) (Homo sapiens) (UniProt P15509)

In the case of GM-CSF (from UniProt P04141), the Kd [1] is listed as 0.1 nM and the Kd [2] is listed as 5 nM.
